{
  "source": "patent US20110104163A1",
  "about": "(US Dept. of Health and Human Services, published 2011)",
  "binders": {"B1": {"name": "m36 (VHH)", "VHH": "QVQLVQSGGGLVQPGGSLRLSCAASAFDFSDYEMSWVRQAPGKGLEWIGEINDSGNTIYNPSLKSRVTISRDNSKNTLYLQMNTLRAEDTAIYYCAIYGGNSGGEYWGQGTLVTVSS", "notes": "Human VH domain antibody, monomeric, made in E. coli with His and FLAG tags; also called b5; dAb m36"}},
  "key": {"[1]": {"target": "T1, single-chain fusion protein gp120Bal-CD4 (HIV-1 isolate Bal, UniProt P01730 26-208)", "T1 construct": "Gift from T. Fouts; Coated on ELISA plates; also called gp120-CD4; Bal gp120-CD4; not shown: junction or linker between gp120 and CD4 not described (gift, Fouts et al. 2000)", "experiment": "ELISA, serially diluted m36 on coated antigen, anti-FLAG detection"}, "soluble CD4": {"target": "T2, soluble CD4 (UniProt P01730 26-396, limits assumed)", "T2 construct": "also called sCD4", "experiment": "ELISA, plate coated with 1 µg/ml antigen, m36 detected with HRP anti-FLAG"}, "bovine serum albumin": {"target": "T3, bovine serum albumin (bovine, UniProt P02769 25-607)", "T3 construct": "also called BSA", "T3 sequence (P02769 25-607 limits assumed)": "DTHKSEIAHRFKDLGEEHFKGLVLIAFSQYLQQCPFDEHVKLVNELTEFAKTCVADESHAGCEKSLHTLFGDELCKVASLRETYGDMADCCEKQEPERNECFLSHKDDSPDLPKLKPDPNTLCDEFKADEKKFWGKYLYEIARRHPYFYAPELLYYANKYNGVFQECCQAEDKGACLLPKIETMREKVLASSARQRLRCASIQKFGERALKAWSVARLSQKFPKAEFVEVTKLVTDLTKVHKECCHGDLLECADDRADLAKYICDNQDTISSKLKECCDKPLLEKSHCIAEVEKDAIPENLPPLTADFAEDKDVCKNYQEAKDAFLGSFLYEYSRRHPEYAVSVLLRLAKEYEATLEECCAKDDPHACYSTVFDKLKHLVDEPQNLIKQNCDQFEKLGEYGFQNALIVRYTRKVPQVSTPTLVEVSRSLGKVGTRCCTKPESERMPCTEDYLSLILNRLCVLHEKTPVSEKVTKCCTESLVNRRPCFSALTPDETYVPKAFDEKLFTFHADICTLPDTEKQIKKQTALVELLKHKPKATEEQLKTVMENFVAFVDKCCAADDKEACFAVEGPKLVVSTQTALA", "experiment": "ELISA, plate coated with 1 µg/ml antigen, m36 detected with HRP anti-FLAG"}, "[2]": {"target": "T1, single-chain fusion protein gp120Bal-CD4", "experiment": "ELISA, soluble VH on coated gp120-CD4"}},
  "data": [
    {"binder": "B1", "values": [
      {"measurement": "EC50", "setting": "[1]", "value": "~2.5", "unit": "nM"},
      {"measurement": "binding result", "setting": "soluble CD4", "value": "no binding (tested: 10 µg/ml)"},
      {"measurement": "binding result", "setting": "bovine serum albumin", "value": "no binding (tested: 10 µg/ml)"},
      {"measurement": "EC50", "setting": "[2]", "value": 0.04, "unit": "µg/mL"}
    ]}
  ]
}
